From article PMC8672811 (Journal of molecular biology, 2021)
Numbering of substitutions follows the chain as printed. Names may count otherwise. Read-outs that look alike come from different tables or passages of the source.

Legend:
SEC [1] = biological target: the molecule itself; test: SEC
SEC [2] = biological target: the molecule itself; test: SEC; remark: listed apart in the source
SEC [3] = biological target: the molecule itself; test: SEC; remark: listed apart in the source
crystal structure = biological target: the molecule itself; test: crystal structure

B1: KcsA W67F channel (natural protein, UniProt P0A334 1-125, looked up)
chain: MPPMLSGLLARLVKLLLGRHGSALHWRAAGAATVLLVIVLLAGSYLAVLAERGAPGAQLITYPRALFWSVETATTVGYGDLYPVTLWGRLVAVVVMVAGITSFGLVTAALATWFVGREQERRGHF
stoichiometry N (SEC [1]): 4

B2: KcsA Y82A channel (natural protein, UniProt P0A334 1-125, looked up)
chain: B1 chain with F67W, Y82A
stoichiometry N (SEC [2]): 4

B3: KcsA W67F/F103A channel (natural protein, UniProt P0A334 1-125, looked up)
chain: B1 chain with F103A
binding result (SEC [3]): binds

B4: KcsA W67F channel, locked open (disulfide cross-linked open-state construct) (natural protein, UniProt P0A334 21-125, looked up)
chain: GSALQWRCAGAATVLLVIVLLAGSYLAVLAERGAPGAQLITYPRALFWSVETATTVGYGDLYPVTLWGRLVAVVVMVAGITSFGLVTAALATWFVGQCQQQQGHF
modifications: Cys mutant channels in the cross-linked state (disulfide crosslink between subunits)
stoichiometry N (SEC [3]): 4

B5: KcsA WT channel trapped with the activation gate open (disulfide cross-linked open-state construct) (natural protein, UniProt P0A334 21-125, looked up)
chain: B4 chain with F47W
modifications: Cys mutant channels in the cross-linked state (disulfide crosslink between subunits)
binding result (crystal structure): binds
